# “And” between values parts separate entries of the source, which are not always exact repeats. Identical values can stand only once.
# T1: Redβ single strand annealing protein (bacteriophage λ, UniProt P03698)
# T1 sequence: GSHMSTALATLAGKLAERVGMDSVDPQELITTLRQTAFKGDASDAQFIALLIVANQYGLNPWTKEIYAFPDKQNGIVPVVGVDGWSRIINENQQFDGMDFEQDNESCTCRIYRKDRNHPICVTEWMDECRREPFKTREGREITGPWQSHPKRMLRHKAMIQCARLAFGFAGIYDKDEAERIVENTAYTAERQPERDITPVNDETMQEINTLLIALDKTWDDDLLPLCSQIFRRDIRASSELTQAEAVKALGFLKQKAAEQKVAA
# B1: 24mer annealed duplex (dsDNA)
# DNA 1: AAAATCGAGCTATGCAGGGCGATT
# DNA 2: AATCGCCCTGCATAGCTCGATTTT
# B2: 38NC1+:38NC1- (dsDNA)
# DNA 1: AGACACAGTAAACGGACGCTAGATGCAACGAGATCCGA
# DNA 2: TCGGATCTCGTTGCATCTAGCGTCCGTTTACTGTGTCT
# B3: 38NC3+:40NC3- (dsDNA)
# DNA 1: GACGCACAATGACAGATAACACAATGGCGAGATAACGC
# DNA 2: GCGTTATCTCGCCATTGTGTTATCTGTCATTGTGCGTCGC
# B4: 28mer annealed duplex (dsDNA)
# DNA 1: AAAATCGAGCTATGCAGGGCGATTCTGC
# DNA 2: GCAGAATCGCCCTGCATAGCTCGATTTT
# B5: 20mer annealed duplex (dsDNA)
# DNA 1: AAAATCGAGCTATGCAGGGC
# DNA 2: GCCCTGCATAGCTCGATTTT
# Experiments:
# [1] = biological target: Redβ single strand annealing protein from bacteriophage λ (bacteriophage λ) (UniProt P03698); assay: native MS; Redβ alone, no DNA, at 1 μM or greater (up to 30 μM); 50 mM ammonium acetate pH 7; monomers to 12-mer
# [2] = biological target: Redβ single strand annealing protein from bacteriophage λ (bacteriophage λ) (UniProt P03698); assay: SEC-MALS; Redβ with dT38 then dA38 added sequentially (annealed duplex, 4 nt/monomer each); Superose 6 increase, PBS; loaded at 34 μM; n assumes one copy of dT38:dA38
# [3] = biological target: Redβ single strand annealing protein from bacteriophage λ (bacteriophage λ) (UniProt P03698); assay: SEC-MALS; Redβ with dT38 ssDNA (6 nt/monomer, 22°C, 30 min); Superose 6 increase, PBS; loaded at 34 μM; n assumes one copy of dT38
# [4] = biological target: Redβ single strand annealing protein from bacteriophage λ (bacteriophage λ) (UniProt P03698); assay: native MS; Redβ (0.1 to 30 μM) with two complementary 38-mers added sequentially (dT38:dA38; at 1 μM also 38NC1+:38NC1- and 38NC3+:40NC3-), annealed duplex; 50 mM ammonium acetate pH 7
# [5] = biological target: Redβ single strand annealing protein from bacteriophage λ (bacteriophage λ) (UniProt P03698); assay: SEC-MALS; Redβ with 83- then 83+ added sequentially (annealed duplex); Superose 6 increase, PBS; loaded at 34 μM; n assumes one copy of 83-:83+
# [6] = biological target: Redβ single strand annealing protein from bacteriophage λ (bacteriophage λ) (UniProt P03698); assay: native MS; 1 μM Redβ with two complementary strands added sequentially (83-:83+ or 83-:87+), annealed duplex; 50 mM ammonium acetate pH 7
# [7] = biological target: Redβ single strand annealing protein from bacteriophage λ (bacteriophage λ) (UniProt P03698); assay: SEC-MALS; Redβ with dT38 ssDNA (6 nt/monomer, 22°C, 30 min); Superose 6 increase, PBS; loaded at 34 μM; n assumes one copy of dT38; remark: listed apart in the source
# [8] = biological target: Redβ single strand annealing protein from bacteriophage λ (bacteriophage λ) (UniProt P03698); assay: SEC-MALS; Redβ alone, no DNA; Superose 6 increase 3.2/300, PBS, 0.04 ml/min; loaded at 34, 67 and 101 μM, eluted at 6.0, 13.5 and 18.5 μM; weight-average mass; monomers to oligomer
# [9] = biological target: Redβ single strand annealing protein from bacteriophage λ (bacteriophage λ) (UniProt P03698); assay: native MS; Redβ alone, no DNA, at 1 μM or greater (up to 30 μM); 50 mM ammonium acetate pH 7; monomers to 12-mer; remark: listed apart in the source
# [10] = biological target: Redβ single strand annealing protein from bacteriophage λ (bacteriophage λ) (UniProt P03698); assay: native MS; Redβ (0.1 to 30 μM) with two complementary 38-mers added sequentially (dT38:dA38; at 1 μM also 38NC1+:38NC1- and 38NC3+:40NC3-), annealed duplex; 50 mM ammonium acetate pH 7; remark: listed apart in the source
# [11] = biological target: Redβ single strand annealing protein from bacteriophage λ (bacteriophage λ) (UniProt P03698); assay: SEC-MALS; Redβ with 83- ssDNA (6 nt/monomer, 22°C, 30 min); Superose 6 increase, PBS; loaded at 34 μM; n assumes one copy of the 83-mer
# [12] = biological target: Redβ single strand annealing protein from bacteriophage λ (bacteriophage λ) (UniProt P03698); assay: native MS; 1 μM Redβ with two complementary strands added sequentially (83-:83+ or 83-:87+), annealed duplex; 50 mM ammonium acetate pH 7; remark: listed apart in the source
# [13] = biological target: T1, Redβ single strand annealing protein; assay: EMSA; strands added sequentially, PBS; EMSA: 10 uM Redβ, 50 uM nt DNA, 37 C, in PBS, or 20 mM Tris-HCl pH 7.5/10 mM NaCl/10 mM MgCl2, or 50 mM ammonium acetate pH 7.0; SEC-MALS: PBS, complexes formed; settings: protein: recombinant; tags: N-terminal GSH left after thrombin removal of 6xHis; chain copies: 11; label: 5'-Cy5, 5'-Cy3; blunt
# [14] = biological target: T1, Redβ single strand annealing protein; assay: EMSA; PBS, ssDNA alone; EMSA: 10 uM Redβ, 50 uM nt DNA, 37 C, in PBS, or 20 mM Tris-HCl pH 7.5/10 mM NaCl/10 mM MgCl2, or 50 mM ammonium acetate pH 7.0; SEC-MALS: PBS, complexes formed; settings: protein: recombinant, tags: N-terminal GSH left after thrombin removal of 6xHis, chain copies: 11
# [15] = biological target: T1, Redβ single strand annealing protein; assay: native MS; 1 uM Redβ; 5-15 subunits, 1 or 2 DNA; EMSA: 10 uM Redβ, 50 uM nt DNA, 37 C, in PBS, or 20 mM Tris-HCl pH 7.5/10 mM NaCl/10 mM MgCl2, or 50 mM ammonium acetate pH 7.0; SEC-MALS: PBS, complexes formed; settings: protein: recombinant; tags: N-terminal GSH left after thrombin removal of 6xHis; chain copies: 11
# [16] = biological target: T1, Redβ single strand annealing protein; assay: native MS; strands added sequentially, 1 uM Redβ; 11 subunits; EMSA: 10 uM Redβ, 50 uM nt DNA, 37 C, in PBS, or 20 mM Tris-HCl pH 7.5/10 mM NaCl/10 mM MgCl2, or 50 mM ammonium acetate pH 7.0; SEC-MALS: PBS, complexes formed; settings: protein: recombinant, tags: N-terminal GSH left after thrombin removal of 6xHis, chain copies: 11
# [17] = biological target: T1, Redβ single strand annealing protein; assay: EMSA; added first, then noncomplementary Cy5 50mer; unusually high affinity; EMSA: 10 uM Redβ, 50 uM nt DNA, 37 C, in PBS, or 20 mM Tris-HCl pH 7.5/10 mM NaCl/10 mM MgCl2, or 50 mM ammonium acetate pH 7.0; SEC-MALS: PBS, complexes formed; settings: protein: recombinant; tags: N-terminal GSH left after thrombin removal of 6xHis; chain copies: 11; label: 5'-Cy3
# [18] = biological target: T1, Redβ single strand annealing protein; assay: SEC-MALS; PBS; 427 kDa, n=14.0; EMSA: 10 uM Redβ, 50 uM nt DNA, 37 C, in PBS, or 20 mM Tris-HCl pH 7.5/10 mM NaCl/10 mM MgCl2, or 50 mM ammonium acetate pH 7.0; SEC-MALS: PBS, complexes formed; settings: protein: recombinant; tags: N-terminal GSH left after thrombin removal of 6xHis; chain copies: 11
# [19] = biological target: T1, Redβ single strand annealing protein; assay: native MS; 1 uM Redβ and higher; 8-13 subunits; EMSA: 10 uM Redβ, 50 uM nt DNA, 37 C, in PBS, or 20 mM Tris-HCl pH 7.5/10 mM NaCl/10 mM MgCl2, or 50 mM ammonium acetate pH 7.0; SEC-MALS: PBS, complexes formed; settings: protein: recombinant; tags: N-terminal GSH left after thrombin removal of 6xHis; chain copies: 11
molecule,measurement,setting,value
Redβ single strand annealing protein from bacteriophage λ (from UniProt P03698 1-261) (natural protein),midpoint of the transition from monomer to 12-mer,[1],1 µM
same,stoichiometry N,[1],1 to 14 subunits
same,stoichiometry N,[2],11.3 subunits
same,stoichiometry N,[3],14.1 subunits
same,stoichiometry N,[4],9 subunits and 10 subunits
same,stoichiometry N,[5],18.2 subunits
same,stoichiometry N,[6],21 subunits and 23 subunits
same,stoichiometry N,[7],14 subunits
same,stoichiometry N,[8],8.6 subunits and 9.1 subunits
same,stoichiometry N,[9],12 subunits
same,stoichiometry N,[10],11 subunits
same,stoichiometry N,[11],21.1 subunits
same,stoichiometry N,[12],22 subunits
Redβ single strand annealing protein from bacteriophage λ (from UniProt P03698 1-261),stoichiometry N,[8],7.7 subunits
B1,binding result,[13],binds
AATCGCCCTGCATAGCTCGATTTT (ssDNA) [Cy3 24mer],binding result,[14]; label: 5'-Cy3,no binding
AGACACAGTAAACGGACGCTAGATGCAACGAGATCCGA (ssDNA) [38NC1+],binding result,[15],binds
B2,binding result,[16]; blunt,binds
AAAATCGAGCTATGCAGGGCGATT (ssDNA) [Cy5 24mer],binding result,[14]; label: 5'-Cy5,no binding
GCGTTATCTCGCCATTGTGTTATCTGTCATTGTGCGTCGC (ssDNA) [40NC3-],binding result,[15],binds
GCCCTGCATAGCTCGATTTT (ssDNA) [Cy3 20mer],binding result,[14]; label: 5'-Cy3,no binding
AAAATCGAGCTATGCA (ssDNA) [Cy5 16mer],binding result,[14]; label: 5'-Cy5,no binding
GAGTGATAGGCATATGTGCTACGAGTATCGAAGGAACGGTCACTACGCAA (ssDNA) [Cy3 NC 50mer],binding result,[17],binds
TTTTTTTTTTTTTTTTTTTTTTTTTTTTTTTTTTTTTT (ssDNA) [dT38],binding result,[18],binds
AAAATCGAGCTATGCAGGGC (ssDNA) [Cy5 20mer],binding result,[14]; label: 5'-Cy5,no binding
GACGCACAATGACAGATAACACAATGGCGAGATAACGC (ssDNA) [38NC3+],binding result,[15],binds
B3,binding result,[16]; 3' overhang 2 nt on strand 2,binds
GCAGAATCGCCCTGCATAGCTCGATTTT (ssDNA) [Cy3 28mer],binding result,[14]; label: 5'-Cy3,no binding
TCGGATCTCGTTGCATCTAGCGTCCGTTTACTGTGTCT (ssDNA) [38NC1-],binding result,[15],binds
TGCATAGCTCGATTTT (ssDNA) [Cy3 16mer],binding result,[14]; label: 5'-Cy3,no binding
B4,binding result,[13],binds
AAAAAAAAAAAAAAAAAAAAAAAAAAAAAAAAAAAAAA (ssDNA) [dA38],binding result,[19],binds
AAAATCGAGCTATGCAGGGCGATTCTGC (ssDNA) [Cy5 28mer],binding result,[14]; label: 5'-Cy5,no binding
B5,binding result,[13],binds
